Data as given in patent US20250092426, “CAS ENDONUCLEASES AND RELATED METHODS” (Flagship Pioneering Innovations VII, LLC, published 2025).

Molecular target: T1, CasEnd-17 (synthetic construct)
T1 chain: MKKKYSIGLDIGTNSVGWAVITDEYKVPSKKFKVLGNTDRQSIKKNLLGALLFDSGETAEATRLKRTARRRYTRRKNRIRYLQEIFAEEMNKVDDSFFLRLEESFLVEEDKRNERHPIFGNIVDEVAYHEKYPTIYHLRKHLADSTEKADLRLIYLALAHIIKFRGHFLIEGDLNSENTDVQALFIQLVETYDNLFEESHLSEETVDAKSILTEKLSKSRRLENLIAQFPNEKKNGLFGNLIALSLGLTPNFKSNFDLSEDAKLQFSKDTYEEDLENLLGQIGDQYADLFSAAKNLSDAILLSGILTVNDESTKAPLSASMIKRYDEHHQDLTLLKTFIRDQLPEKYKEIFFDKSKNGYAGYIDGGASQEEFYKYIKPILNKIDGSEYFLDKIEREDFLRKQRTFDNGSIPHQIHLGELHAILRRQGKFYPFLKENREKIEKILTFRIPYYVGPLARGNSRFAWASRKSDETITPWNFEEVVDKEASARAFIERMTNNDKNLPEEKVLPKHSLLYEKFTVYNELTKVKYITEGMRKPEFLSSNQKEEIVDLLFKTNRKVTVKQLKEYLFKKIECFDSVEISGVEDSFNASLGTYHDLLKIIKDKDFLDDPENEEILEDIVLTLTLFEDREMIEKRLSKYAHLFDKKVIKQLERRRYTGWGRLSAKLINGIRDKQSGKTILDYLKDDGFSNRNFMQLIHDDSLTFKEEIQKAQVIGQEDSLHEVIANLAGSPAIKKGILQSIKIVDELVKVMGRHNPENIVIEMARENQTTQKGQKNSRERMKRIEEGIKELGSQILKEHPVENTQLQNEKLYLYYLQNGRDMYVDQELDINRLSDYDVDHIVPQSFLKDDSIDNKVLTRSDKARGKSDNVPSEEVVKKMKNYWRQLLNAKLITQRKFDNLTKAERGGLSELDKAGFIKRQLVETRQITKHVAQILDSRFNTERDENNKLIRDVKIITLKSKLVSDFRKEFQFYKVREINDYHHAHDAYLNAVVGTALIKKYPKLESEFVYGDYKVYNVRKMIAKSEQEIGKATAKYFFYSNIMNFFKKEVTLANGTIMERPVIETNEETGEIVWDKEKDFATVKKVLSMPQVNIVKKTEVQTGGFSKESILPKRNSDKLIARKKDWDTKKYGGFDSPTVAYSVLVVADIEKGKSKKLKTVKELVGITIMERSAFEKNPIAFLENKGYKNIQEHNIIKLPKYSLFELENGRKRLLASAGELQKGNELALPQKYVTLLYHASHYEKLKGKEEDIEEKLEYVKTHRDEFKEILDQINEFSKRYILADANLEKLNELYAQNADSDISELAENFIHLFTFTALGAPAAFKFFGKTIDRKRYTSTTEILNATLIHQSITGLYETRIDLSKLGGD
Assay: cell_activity; +++; HEK293T; PAM not stated
How it was run: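 BFP-to-GFP conversion via reverse transcriptase fusion with each Cas endonuclease plus template RNA: 200 ng of each plasmid nucleofected into 250,000 BFP-expressing HEK293T cells (program DS-150). Percent GFP+ cells by flow cytometry at day 4 measured editing.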

B1: BFP-to-GFP template RNA ; BFP reporter protospacer (ssRNA ; dsDNA)
RNA: GCCGAAGCACUGCACGCCGUGUUUUAGAGCUAGAAAUAGCAAGUUAAAAUAAGGCUAGUCCGUUAUCAACUUGAAAAAGUGGCACCGAGUCGGUGCACCCUGACGUACGGCGUGCAGUGCUU
DNA 1: GCCGAAGCACTGCACGCCGT
DNA 2: ACGGCGTGCAGTGCTTCGGC
With B1 the activity was ≥ 100 % of reference.
